Measurements reported in patent US20230265151A1, “GIP/GLP1 CO-AGONIST COMPOUNDS” (priority 2020, published 2023).
*1 amine or outer side, *2 acyl side, *3 side chain or, on linkers, in order; H or OH if unused. Where no end group is shown, it is not given here. Side-chain parts run from the residue outwards. [ ]: non-standard residue; d: D form. The star is where a group is joined. Decanoyl(10-(4-HOOC-PhO)) = O=C(O)c1ccc(OCCCCCCCCCC(=O)*)cc1; αMePhe(2-F) = C[C@](N)(Cc1ccccc1F)C(=O)O; γGlu = O=C(O)[C@H](CCC(=O)[*:2])N[*:1]; C14 diacid = O=C(O)CCCCCCCCCCCCC(=O)*; αMeY = C[C@](N)(Cc1ccc(O)cc1)C(=O)O; αMeL = CC(C)C[C@](C)(N)C(=O)O; Orn = NCCC[C@H](N)C(=O)O; AEEA = NCCOCCOCC(=O)O; Aib = CC(C)(N)C(=O)O

Key:
Assay in all cases: cell-based or functional assay
[1] = target: human glucagon receptor (human) (UniProt P47871)
[2] = target: T1, human GIP receptor (human) (UniProt P48546)
T1 sequence (looked up): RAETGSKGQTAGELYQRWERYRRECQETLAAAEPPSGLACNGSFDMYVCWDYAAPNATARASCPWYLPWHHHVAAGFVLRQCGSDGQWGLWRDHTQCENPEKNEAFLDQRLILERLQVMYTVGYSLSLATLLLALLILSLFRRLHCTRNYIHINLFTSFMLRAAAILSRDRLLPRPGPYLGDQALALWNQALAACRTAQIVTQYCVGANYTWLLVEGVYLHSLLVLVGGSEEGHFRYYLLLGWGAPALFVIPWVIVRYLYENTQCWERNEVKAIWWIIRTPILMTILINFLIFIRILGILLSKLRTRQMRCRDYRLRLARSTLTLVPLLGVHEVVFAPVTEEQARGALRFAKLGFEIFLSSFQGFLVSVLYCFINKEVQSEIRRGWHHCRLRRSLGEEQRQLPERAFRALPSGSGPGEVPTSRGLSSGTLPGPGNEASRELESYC

[3] = target: hGLP-1R (Homo sapiens, UniProt P43220)
[4] = target: human glucagon receptor (human, UniProt P47871 26-477)
Sequence of human glucagon receptor (P47871 26-477): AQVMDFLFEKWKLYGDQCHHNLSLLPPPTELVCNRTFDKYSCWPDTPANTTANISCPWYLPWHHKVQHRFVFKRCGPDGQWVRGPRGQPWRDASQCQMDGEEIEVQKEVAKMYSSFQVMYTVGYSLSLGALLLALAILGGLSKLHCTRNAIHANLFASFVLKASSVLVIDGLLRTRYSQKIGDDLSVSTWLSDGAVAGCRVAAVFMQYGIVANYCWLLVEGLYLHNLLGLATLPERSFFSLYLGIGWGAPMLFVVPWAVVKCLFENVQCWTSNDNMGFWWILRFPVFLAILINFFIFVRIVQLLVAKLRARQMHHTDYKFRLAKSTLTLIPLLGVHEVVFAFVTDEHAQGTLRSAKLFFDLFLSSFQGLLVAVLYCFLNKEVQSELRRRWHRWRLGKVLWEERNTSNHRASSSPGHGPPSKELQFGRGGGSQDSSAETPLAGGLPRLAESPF

[5] = target: T2, human GIP receptor (human, UniProt P48546 22-466)
T2 sequence (looked up): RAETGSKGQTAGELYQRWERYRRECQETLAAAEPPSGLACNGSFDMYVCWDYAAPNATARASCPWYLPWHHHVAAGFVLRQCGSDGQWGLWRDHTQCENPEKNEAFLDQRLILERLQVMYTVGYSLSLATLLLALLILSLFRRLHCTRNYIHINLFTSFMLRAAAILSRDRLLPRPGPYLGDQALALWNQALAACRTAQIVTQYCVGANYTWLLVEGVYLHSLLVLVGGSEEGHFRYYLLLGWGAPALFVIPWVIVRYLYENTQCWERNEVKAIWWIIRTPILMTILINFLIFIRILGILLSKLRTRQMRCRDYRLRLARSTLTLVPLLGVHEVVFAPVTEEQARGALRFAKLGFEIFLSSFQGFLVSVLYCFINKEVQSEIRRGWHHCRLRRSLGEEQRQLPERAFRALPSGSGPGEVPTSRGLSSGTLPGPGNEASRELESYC

[6] = target: human GLP-1 receptor (human, UniProt P43220 24-463)

Binder | cAMP EC50 [1] | cAMP EC50 [2] | cAMP Emax [2] | cAMP EC50 [3] | cAMP Emax [3] | cAMP EC50 (1.0% HSA) [4] | cAMP EC50 (1.0% HSA) [5] | cAMP Emax (1.0% HSA) [5] | cAMP EC50 (1.0% HSA) [6] | cAMP Emax (1.0% HSA) [6]
Y[Aib]EGT[αMePhe(2-F)]TSDV[Aib]I[αMeL]LD[Orn]K([AEEA-AEEA-Decanoyl(10-(4-HOOC-PhO))])AQ[Aib]EFI[dE][αMeY]LIK([AEEA-AEEA-Decanoyl(10-(4-HOOC-PhO))])GGPSSGAPPPS-NH2 [Example 397] | > 9950 nM | 0.0293 nM | 94.6% | 0.166 nM | 95.8% | > 9950 nM | 1.92 nM | 84.5% | 7.17 nM | 
Y[Aib]EGT[αMePhe(2-F)]TSDV[Aib]I[αMeL]LD[Orn]K([AEEA-AEEA-γGlu-Decanoyl(10-(4-HOOC-PhO))])AQ[Aib]EFI[dE][αMeY]LIEGGPSSGAPPPSK([AEEA-AEEA-γGlu-Decanoyl(10-(4-HOOC-PhO))])-NH2 [Example 380] | > 9950 nM | 0.0209 nM | 100% | 0.176 nM | 96.2% | > 9950 nM | 9.23 nM | 93.5% | 28 nM | 94.5%
Y[Aib]EGT[αMePhe(2-F)]TSDV[Aib]I[αMeL]LD[Orn]IAQ[Aib]K([AEEA-AEEA-γGlu-Decanoyl(10-(4-HOOC-PhO))])FI[dE][αMeY]LIEGGPSSGAPPPSK([AEEA-AEEA-γGlu-Decanoyl(10-(4-HOOC-PhO))])-NH2 [Example 383] | > 9950 nM | 0.0147 nM | 100% | 0.306 nM | 105% | > 9950 nM | 10.7 nM | 82.8% | 92.2 nM | 102%
YXEGTXTSDXXIXLDXKAQXKFIXXLIEGGPSSGAPPPS (Y-Aib-EGT-αMeF(2F)-TSD-4Pal-Aib-I-αMeL-LD-Orn-K((2-[2-(2-Amino-ethoxy)-ethoxy]-acetyl)2-CO-(CH2)12-CO2H)AQ-Aib-K((2-[2-(2-Amino-ethoxy)-ethoxy]-acetyl)2-CO-(CH2)12-CO2H)FI-(D-Glu)-αMeY-LIEGGPSSGAPPPS-NH2) [Example 384] | > 9950 nM | 0.0124 nM | 94.5% | 0.308 nM | 98.2% | > 9950 nM | 0.457 nM |  | 5.32 nM | 
YXEGTXTSDYXIXLDXKAQXEFIXXLIKGGPSSGAPPPS (Y-Aib-EGT-αMeF(2F)-TSDY-Aib-I-αMeL-LD-Orn-K((2-[2-(2-Amino-ethoxy)-ethoxy]-acetyl)2-(10-(4-carboxyphenoxy)decanoyl))AQ-Aib-EFI-(D-Glu)-αMeY-LIK((2-[2-(2-Amino-ethoxy)-ethoxy]-acetyl)2-(10-(4-carboxyphenoxy)decanoyl))GGPSSGAPPPS-NH2) [Example 396] | > 9950 nM | 0.0113 nM | 96.2% | 0.291 nM | 107% | > 9950 nM | 0.595 nM | 67.1% | 6.49 nM | 94.4%
YXEGTXTSDVXIXLDXKAQXKFIXXLIEGGPSSGAPPPS (Y-Aib-EGT-αMeF(2F)-TSDV-Aib-I-αMeL-LD-Orn-K((2-[2-(2-Amino-ethoxy)-ethoxy]-acetyl)2-(10-(4-carboxyphenoxy)decanoyl))AQ-Aib-K((2-[2-(2-Amino-ethoxy)-ethoxy]-acetyl)2-(10-(4-carboxyphenoxy)decanoyl))FI-(D-Glu)-αMeY-LIEGGPSSGAPPPS-NH2) [Example 394] | > 9950 nM | 0.0179 nM | 97.7% | 0.223 nM | 101% | > 9950 nM | 1.38 nM | 84.6% | 5.83 nM | 
YXEGTXTSDVXIXLDXKAQXKFIXXLIEGGPSSGAPPPS (Y-Aib-EGT-αMeF(2F)-TSDV-Aib-I-αMeL-LD-Orn-K((2-[2-(2-Amino-ethoxy)-ethoxy]-acetyl)2-CO-(CH2)12-CO2H)AQ-Aib-K((2-[2-(2-Amino-ethoxy)-ethoxy]-acetyl)2-CO-(CH2)12-CO2H)FI-(D-Glu)-αMeY-LIEGGPSSGAPPPS-NH2) [Example 386] | > 9950 nM | 0.0174 nM | 95.7% | 0.194 nM | 98.9% | > 9950 nM | 2.08 nM | 81.3% | 17.7 nM | 
YXEGTXTSDVXIXLDXKAQXKFIXXLIEGGPSSGAPPPS (Y-Aib-EGT-αMeF(2F)-TSDV-Aib-I-αMeL-LD-Orn-K((2-[2-(2-Amino-ethoxy)-ethoxy]-acetyl)-(γ-Glu)-CO-(CH2)12-CO2H)AQ-Aib-K((2-[2-(2-Amino-ethoxy)-ethoxy]-acetyl)-(γ-Glu)-CO-(CH2)12-CO2H)FI-(D-Glu)-αMeY-LIEGGPSSGAPPPS-NH2) [Example 398] | > 9950 nM | 0.0166 nM | 97.4% | 0.215 nM | 101% | > 9950 nM | 5.4 nM | 91.9% | 41.3 nM | 
YXEGTXTSDYXIXLDXKAQXKFIXXLIEGGPSSGAPPPS (Y-Aib-EGT-αMeF(2F)-TSDY-Aib-I-αMeL-LD-Orn-K((2-[2-(2-Amino-ethoxy)-ethoxy]-acetyl)2-CO-(CH2)12-CO2H)AQ-Aib-K((2-[2-(2-Amino-ethoxy)-ethoxy]-acetyl)2-CO-(CH2)12-CO2H)FI-(D-Glu)-αMeY-LIEGGPSSGAPPPS-NH2) [Example 385] | > 9950 nM | 0.0154 nM | 95.2% | 0.189 nM | 100% | > 9950 nM | 0.558 nM | 83.5% | 10.6 nM | 112%
YXEGTXTSDYXIXLDXKAQXKFIXXLIEGGPSSGAPPPS (Y-Aib-EGT-αMeF(2F)-TSDY-Aib-I-αMeL-LD-Orn-K((2-[2-(2-Amino-ethoxy)-ethoxy]-acetyl)2-(10-(4-carboxyphenoxy)decanoyl))AQ-Aib-K((2-[2-(2-Amino-ethoxy)-ethoxy]-acetyl)2-(10-(4-carboxyphenoxy)decanoyl))FI-(D-Glu)-αMeY-LIEGGPSSGAPPPS-NH2) [Example 393] | > 9950 nM | 0.0115 nM | 94.3% | 0.372 nM | 96.8% | > 9950 nM | 0.547 nM | 66.7% | 9.18 nM | 
YXEGTXTSDYXIXLDXKAQXEFIXXLIKGGPSSGAPPPS (Y-Aib-EGT-αMeF(2F)-TSDY-Aib-I-αMeL-LD-Orn-K((2-[2-(2-Amino-ethoxy)-ethoxy]-acetyl)2-CO-(CH2)12-CO2H)AQ-Aib-EFI-(D-Glu)-αMeY-LIK((2-[2-(2-Amino-ethoxy)-ethoxy]-acetyl)2-CO-(CH2)12-CO2H)GGPSSGAPPPS-NH2) [Example 388] | > 9950 nM | 0.0103 nM | 98.3% | 0.292 nM | 95.4% | > 9950 nM | 0.463 nM |  | 6.31 nM | 
Y[Aib]EGT[αMePhe(2-F)]TSDV[Aib]I[αMeL]LD[Orn]K([AEEA-AEEA-C14 diacid])AQ[Aib]EFI[dE][αMeY]LIK([AEEA-AEEA-C14 diacid])GGPSSGAPPPS-NH2 [Example 389] | > 9950 nM | 0.0178 nM | 94.6% | 0.19 nM | 92.4% | > 9950 nM | 1.5 nM | 82% | 9.58 nM | 
Y[Aib]EGT[αMePhe(2-F)]TSDV[Aib]I[αMeL]LD[Orn]IAQ[Aib]K([AEEA-γGlu-Decanoyl(10-(4-HOOC-PhO))])FI[dE][αMeY]LIK([AEEA-γGlu-Decanoyl(10-(4-HOOC-PhO))])GGPSSGAPPPS-NH2 [Example 382] | > 9950 nM | 0.0302 nM | 97.6% | 0.619 nM | 101% | > 9950 nM | 18.7 nM | 87.2% | 204 nM | 
